Assay results reported in PMC3933668, “The phzA2-G2 Transcript Exhibits Direct RsmA-Mediated Activation in Pseudomonas aeruginosa M18”.

Legend:
[1] = molecular target: T1, RsmA (Pseudomonas aeruginosa M18, UniProt O69078 1-61); experiment: EMSA; RsmA 0-400 nM; EMSA: 200 mM KCl, 100 mM HEPES pH 7.3, 10 mM MgCl2, 2 ug tRNA, 5% glycerol, 10 mM DTT, room temp 30 min, 1 nM RNA; SPR: 200 mM NaCl, 20 mM Tris-HCl pH 8.0, 1 mM EDTA, 1 mM DTT, 25 C; settings: protein: recombinant; tags: C-terminal His tag; chain copies: 2; label: 3' biotin
[2] = molecular target: T1, RsmA; experiment: SPR; biotin-RNA on SA chip; 200 mM NaCl, 20 mM Tris-HCl pH 8.0, 1 mM EDTA, 1 mM DTT; 25 C; EMSA: 200 mM KCl, 100 mM HEPES pH 7.3, 10 mM MgCl2, 2 ug tRNA, 5% glycerol, 10 mM DTT, room temp 30 min, 1 nM RNA; SPR: 200 mM NaCl, 20 mM Tris-HCl pH 8.0, 1 mM EDTA, 1 mM DTT, 25 C; settings: protein: recombinant; tags: C-terminal His tag; chain copies: 2; label: 3' biotin

T1 sequence (O69078 whole entry): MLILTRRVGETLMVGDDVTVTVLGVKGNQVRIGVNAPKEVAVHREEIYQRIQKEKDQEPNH

Binder	binding result [1]	Kd [2]
GGCAAUUCGGCAUUAGUUGAAACUUUGGAGACGCUCCGAA (ssRNA) [phz2-S1]	no binding	
UCUUCUUUCCGGUAUGGAUGCCAGUCGAUUC (ssRNA) [phz2-S3]		54.5 nM
UCUUCUUUCCGGUAUUUCUGCCAGUCGAUUC (ssRNA) [phz2-S3M]	no binding	
GGGCAACUUUUGCCCGGAAAAAGCUUCACGGCAAUUUCUC (ssRNA) [phz2-S2]	no binding	
